# Like-named read-outs stand apart in the source and are kept apart here.
substance,measurement,setting,value
CD79A: N112Q,localisation_or_trafficking,N-glycosylation at N112,no change
CD79B: N73Q,localisation_or_trafficking,N-glycosylation at N73,no change
CD79B: N101Q,localisation_or_trafficking,N-glycosylation at N101,no change
IgM: N209Q,localisation_or_trafficking,N-glycosylation at N209,no change
